In test [1] the target is SARS-CoV-2 spike receptor-binding domain (RBD) (SARS-CoV-2) (UniProt P0DTC2). The test can be described thus: SPR. (Surface plasmon resonance follows binding to a sensor surface in real time, without labels.)
The target of test [2] is human angiotensin-converting-enzyme-2 (ACE2) receptor, recombinant (human) (UniProt Q9BYF1). The test can be described thus: SPR.
In test [3] the target is pineapple-derived jacalin-related lectin AcmJRL (pineapple (Ananas comosus)). Nature of the test: dynamic light scattering.

Among the data in paper doi:10.1101/2022.05.27.493400 are Kd, kon and stoichiometry N values, retold here.

Where “and” joins values, the source holds several entries; their conditions need not be identical. Equal values may be shown once.

What is called Kd is the constant that tells how readily two partners part at equilibrium. The term kon denotes the rate constant with which the complex forms. A word on the stoichiometry N: it is a count of units in the complex or per binding partner.

“pineapple-derived jacalin-related lectin AcmJRL (natural protein)”: in test [1], the Kd was 12.9 µM and 35 µM; the kon worked out at 1490 M⁻¹ s⁻¹. Besides, in test [2], the Kd turned out to be 22.1 µM and the kon came to 590 M⁻¹ s⁻¹. This substance also yielded a stoichiometry N in test [3] of 2.
